Laboratory results from patent publication US20200181597A1, “Composition and Application of Arginine-depleting Agents for Cancer, Obesity, Metabolic Disorders, and Related Complications and Comorbidities” (THE HONG KONG POLYTECHNIC UNIVERSITY, priority 2018, published 2020).

What was measured:
plasma arginine = assay: Plasma arginine after single i.p. 500U N-ABD094-rhArg (LC-MS/MS); format: in vivo, C57BL/6J male mice
Experimental: Each time point represents mean±SEM of 5 mice.
Fifty C57BL/6J male mice (10-12 weeks of age) were used in this study. A single dose of 500U N-ABD094-rhArg (SEQ ID NO: 50) was administered to the mouse via i.p. injection. Blood samples were collected from the saphenous vein using heparinized capillary tubes, and were centrifuged at 800×g to obtain plasma.
Following injection, serum was collected at Hour 2, Hour 4, Hour 8, Hour 16, Hour 24 (Day 1) and from Day 2 to Day 12 at 24-hour intervals, and from Day 12 to Day 30 at 72-hour intervals. To strike a balance between the number of animals used and to minimize the effect on results of pharmacokinetics and pharmacodynamics study caused by removal of N-ABD094-rhArg (SEQ ID NO: 50) from the mouse as a consequence of blood collection, mice were divided into 10 groups, with n=5 in each group, and subjected to blood collection at the indicated time-point(s) shown in brackets: Group 1 (Hour 2), Group 2 (Hour 4), Group 3 (Hour 8), Group 4 (Hour 16), Group 5 (Hour 24), Group 6 (Day 2, Day 7, Day 12), Group 7 (Day 3, Day 8, Day 18), Group 8 (Day 4, Day 9, Day 21), Group 9 (Day 5, Day 10, Day 15, Day 24), Group 10 (Day 0, Day 6, Day 11, Day 27, Day 30).

[1] = tested on: mouse primary hepatocytes; assay: Mouse primary hepatocytes: MTT viability and pAkt Western blot; format: cell-based
Experimental: Data are expressed as mean±SEM, n=5 for each group. […] (C) Western blot analysis of protein levels of phosphorylated Akt (pAkt) (marker of insulin signaling) in […] […] Lane 1: con; Lane 2: 5U/mL N-ABD094-rhArg (SEQ ID NO: 50); Lane 3: 100 nM insulin; Lane 4: 5U/mL N-ABD094-rhArg (SEQ ID NO: 50) +100 nM insulin.
Obesity is highly associated with insulin resistance. We therefore conducted both in vivo and in vitro study to determine whether N-ABD094-rhArg (SEQ ID NO: 50) treatment will have effects on insulin sensitivity. […] […] Cells were then collected for Western blot analysis to detect phosphorylated protein kinase B (pAkt), which is commonly used as marker of insulin signaling.

[2] = LFD-fed mice treated for 8 months: anti-drug antibody and safety; format: in vivo, C57BL/6J male mice
Experimental: FIG. 56 illustrates that C57BL/6J male mice fed a LFD and received an intraperitoneal injection of 500U N-ABD094-rhArg (SEQ ID NO: 50) [LFD(rhArg) group] once a week for 8 months starting from 5 week old had developed non-neutralizing anti-drug antibody. (A) Using an ELISA assay, anti-rhArg antibodies, with an average antibody titer of 10^8, could be detected in the plasma of LFD-fed mice treated with N-ABD094-rhArg. (B) The plasma was incubated with 1,000U/mL N-ABD094-rhArg (rhArg*) for 1 hr followed by measurement of arginase activity. There was no reduction in arginase activity, showing that the antibodies generated in the animal against the drug were not neutralizing antibodies. Data are expressed as mean±SEM, n=3 for each group.
Generation of neutralizing antibodies may affect the pharmacodynamics, pharmacokinetic, stability and efficacy of a drug. To determine the immunogenic response, 8 week old C57BL/6J male mice fed a LFD received i.p. injection of 500U of N-ABD094-rhArg (SEQ ID NO: 50), or saline as vehicle control, at 7-day intervals for 8 months.
To assess the safety of long-term use, serum and urine samples from LFD-fed mice treated with N-ABD094-rhArg (SEQ ID NO: 50) for 8 months were collected for analysis of ALT and AST, which are commonly used biomarkers of liver damage, and serum creatinine and urine albumin/creatinine ratio for assessing kidney functions.

B1: N-ABD094-rhArg: albumin binding domain ABD094 fused N-terminally to recombinant human arginase I, SEQ ID NO: 50 (protein)
chain: MHHHHHHDEAVDANSLAEAKEAANAELDSYGVSDFYKRLIDKAKTVEGVEALKDAILAALPSGSNNNNNNGSGGMSAKSRTIGIIGAPFSKGQPRGGVEEGPTVLRKAGLLEKLKEQECDVKDYGDLPFADIPNDSPFQIVKNPRSVGKASEQLAGKVAEVKKNGRISLVLGGDHSLAIGSISGHARVHPDLGVIWVDAHTDINTPLTTTSGNLHGQPVSFLLKELKGKIPDVPGFSWVTPCISAKDIVYIGLRDVDPGEHYILKTLGIKYFSMTEVDRLGIGKVMEETLSYLLGRKKRPIHLSFDVDGLDPSFTPATGTPVVGGLTYREGLYITEEIYKTGLLSGLDIMEVNPSLGKTPEEVTRTVNTAVAITLACFGLAREGNHKPIDYLNPPK
modifications: Mn2+; N-ABD094-rhArg, Synthesized in the Lab
Plasma arginine; 500U i.p.
  plasma arginine concentration reached within 2 hour after injection: 1 µM
Plasma arginine; Day 2 after i.p. 500U
  Plasma arginine concentrations (Mean of 5 mice ± SEM): 0.944 ± 0.007 µM
Plasma arginine; Day 3 after i.p. 500U
  Plasma arginine concentrations (Mean of 5 mice ± SEM): 0.965 ± 0.008 µM
Plasma arginine; Day 4 after i.p. 500U
  Plasma arginine concentrations (Mean of 5 mice ± SEM): 0.535 ± 0.121 µM
Plasma arginine; Day 5 after i.p. 500U
  Plasma arginine concentrations (Mean of 5 mice ± SEM): 0.681 ± 0.043 µM
Plasma arginine; Day 6 after i.p. 500U
  Plasma arginine concentrations (Mean of 5 mice ± SEM): 0.896 ± 0.089 µM
Plasma arginine; Day 7 after i.p. 500U
  Plasma arginine concentrations (Mean of 5 mice ± SEM): 0.792 ± 0.135 µM
Plasma arginine; Day 8 after i.p. 500U
  Plasma arginine concentrations (Mean of 5 mice ± SEM): 0.916 ± 0.079 µM
Plasma arginine; Day 9 after i.p. 500U
  Plasma arginine concentrations (Mean of 5 mice ± SEM): 1.224 ± 0.178 µM
Plasma arginine; Day 10 after i.p. 500U
  Plasma arginine concentrations (Mean of 5 mice ± SEM): 0.721 ± 0.054 µM
Plasma arginine; Day 11 after i.p. 500U
  Plasma arginine concentrations (Mean of 5 mice ± SEM): 3.828 ± 1.511 µM
Plasma arginine; Day 12 after i.p. 500U
  Plasma arginine concentrations (Mean of 5 mice ± SEM): 7.607 ± 2.325 µM
Plasma arginine; Day 15 after i.p. 500U
  Plasma arginine concentrations (Mean of 5 mice ± SEM): 31.283 ± 4.569 µM
Plasma arginine; Day 18 after i.p. 500U
  Plasma arginine concentrations (Mean of 5 mice ± SEM): 48.648 ± 3.989 µM
Plasma arginine; Day 21 after i.p. 500U
  Plasma arginine concentrations (Mean of 5 mice ± SEM): 73.55 ± 3.76 µM
Plasma arginine; Day 24 after i.p. 500U
  Plasma arginine concentrations (Mean of 5 mice ± SEM): 76.07 ± 4.92 µM
Plasma arginine; Day 27 after i.p. 500U
  Plasma arginine concentrations (Mean of 5 mice ± SEM): 111.09 ± 6.21 µM
Plasma arginine; Day 30 after i.p. 500U
  Plasma arginine concentrations (Mean of 5 mice ± SEM): 110.91 ± 3.81 µM
Plasma arginine; Hour 2 after i.p. 500U
  Plasma arginine concentrations (Mean of 5 mice ± SEM): 1.007 ± 0.013 µM
Plasma arginine; Hour 4 after i.p. 500U
  Plasma arginine concentrations (Mean of 5 mice ± SEM): 0.934 ± 0.021 µM
Plasma arginine; Hour 8 after i.p. 500U
  Plasma arginine concentrations (Mean of 5 mice ± SEM): 0.912 ± 0.006 µM
Plasma arginine; Hour 16 after i.p. 500U
  Plasma arginine concentrations (Mean of 5 mice ± SEM): 0.943 ± 0.010 µM
Plasma arginine; Hour 24 after i.p. 500U
  Plasma arginine concentrations (Mean of 5 mice ± SEM): 0.934 ± 0.007 µM
[1]; 5U/mL 24 hr, then 100 nM insulin 20 min
  phosphorylation of Akt upon insulin stimulation: prominent increase
[1]; 5U/mL, 48 hr
  cell viability (MTT): did not affect cell viability
[2]; 500U i.p. weekly for 8 months
  average anti-rhArg antibody titer in plasma (ELISA): 10^8
[2]; 500U weekly for 8 months
  serum ALT, AST, creatinine and urine albumin/creatinine ratio vs vehicle: did not show any significant differences
[2]; 500U weekly for 8 months, Biochrom 30 detection limit
  plasma arginine concentrations throughout the study period: < 3 µM
[2]; 500U weekly for 8 months, wire myography
  vascular reactivity of isolated arteries (phenylephrine, acetylcholine, sodium nitroprusside) vs vehicle: no significant differences
[2]; plasma incubated with 1,000U/mL drug for 1 hr
  effect of anti-drug antibodies on arginase activity: did not have neutralizing effects
